Measured values reported in patent publication US20040001835A1, “Prevention or treatment of cancer using integrin alphavbeta3 antagonists in combination with other agents” (MedImmune, Inc., priority 2002, published 2004).
Entries after “also recorded” stand apart in the source; their conditions may differ. Read-outs that look alike come from different tables or passages of the source.

How the values were obtained:
[1] = tested on: Rabbit αvβ3; experiment: 125-labeled Vitaxin binding affinities and number of binding sites on cell lines; settings: for Kd: read-out: Kp
Text: (§1) ^125-labeled Vitaxin® was used to determine binding affinities and number of binding sites for human, rabbit and hamster cell lines. The affinity of Vitaxin® for hamster αvβ3 was approximately 2-3 fold lower than human αvβ3 while its affinity for rabbit αvβ3 was about 4-10 fold lower than human αvβ3.

[2] = tested on: hamster αvβ3; experiment: as above
Text: as §1

[3] = target: T1, human αvβ3 (Homo sapiens, UniProt P05106); experiment: as above; settings: for Kd: read-out: Kp
T1 construct: endogenous in cells; host or cells: M21 melanoma, HMVEC, HUVEC
T1 sequence (P05106 27-788): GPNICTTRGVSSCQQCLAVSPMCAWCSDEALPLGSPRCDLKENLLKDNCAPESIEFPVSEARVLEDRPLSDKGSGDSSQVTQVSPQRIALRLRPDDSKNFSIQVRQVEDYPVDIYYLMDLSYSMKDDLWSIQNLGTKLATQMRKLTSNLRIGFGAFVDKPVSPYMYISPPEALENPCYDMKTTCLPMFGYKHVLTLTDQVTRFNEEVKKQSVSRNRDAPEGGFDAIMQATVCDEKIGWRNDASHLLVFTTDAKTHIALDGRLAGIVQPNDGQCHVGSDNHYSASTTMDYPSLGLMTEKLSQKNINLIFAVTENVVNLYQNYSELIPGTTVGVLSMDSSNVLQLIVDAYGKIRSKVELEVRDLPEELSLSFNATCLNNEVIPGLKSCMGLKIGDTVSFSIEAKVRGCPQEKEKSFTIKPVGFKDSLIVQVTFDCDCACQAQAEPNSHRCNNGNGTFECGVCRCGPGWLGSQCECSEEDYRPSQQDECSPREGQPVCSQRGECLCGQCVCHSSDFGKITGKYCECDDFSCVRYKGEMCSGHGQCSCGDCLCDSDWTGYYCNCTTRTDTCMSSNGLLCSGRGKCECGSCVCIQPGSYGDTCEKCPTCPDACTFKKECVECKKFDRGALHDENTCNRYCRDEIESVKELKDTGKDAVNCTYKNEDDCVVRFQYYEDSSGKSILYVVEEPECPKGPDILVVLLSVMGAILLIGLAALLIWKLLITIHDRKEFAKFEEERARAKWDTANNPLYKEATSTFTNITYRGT
T1 sequence (P06756 31-889 partner limits assumed): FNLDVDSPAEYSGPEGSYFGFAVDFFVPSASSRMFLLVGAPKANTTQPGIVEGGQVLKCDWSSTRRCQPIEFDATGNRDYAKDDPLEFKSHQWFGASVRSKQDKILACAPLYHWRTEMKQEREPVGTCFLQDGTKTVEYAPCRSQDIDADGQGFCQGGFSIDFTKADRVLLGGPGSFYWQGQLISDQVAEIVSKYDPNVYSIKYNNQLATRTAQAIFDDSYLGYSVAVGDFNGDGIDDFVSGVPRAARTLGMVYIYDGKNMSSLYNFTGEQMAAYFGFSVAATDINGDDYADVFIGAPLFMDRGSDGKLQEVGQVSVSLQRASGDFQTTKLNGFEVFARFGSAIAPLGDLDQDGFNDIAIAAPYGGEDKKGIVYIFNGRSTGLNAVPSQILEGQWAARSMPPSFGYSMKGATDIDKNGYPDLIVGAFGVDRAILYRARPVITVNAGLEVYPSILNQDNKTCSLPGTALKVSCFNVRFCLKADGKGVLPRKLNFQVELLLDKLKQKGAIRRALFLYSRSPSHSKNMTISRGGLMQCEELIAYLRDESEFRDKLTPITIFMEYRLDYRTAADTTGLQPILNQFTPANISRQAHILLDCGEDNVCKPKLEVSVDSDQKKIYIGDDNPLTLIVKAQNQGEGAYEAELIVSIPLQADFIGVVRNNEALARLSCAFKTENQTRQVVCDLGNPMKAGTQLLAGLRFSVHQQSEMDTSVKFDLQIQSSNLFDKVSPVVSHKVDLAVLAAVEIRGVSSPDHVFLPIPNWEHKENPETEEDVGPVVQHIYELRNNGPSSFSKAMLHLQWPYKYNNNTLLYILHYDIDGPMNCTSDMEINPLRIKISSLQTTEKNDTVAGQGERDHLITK
T1 sequence (P06756 891-1048 partner limits assumed): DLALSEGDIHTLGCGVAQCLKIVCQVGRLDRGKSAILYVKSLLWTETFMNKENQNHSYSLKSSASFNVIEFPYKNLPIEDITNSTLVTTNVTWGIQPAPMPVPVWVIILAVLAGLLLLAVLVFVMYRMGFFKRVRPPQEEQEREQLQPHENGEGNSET
Text: as §1

[4] = target: T2, human β3 Mutant A (E171Q) (Homo sapiens, UniProt P05106, E197Q); experiment: FACS analysis of HEK293 transfectants, human β3 containing rat residues; assay type: binding; settings: flow cytometry
T2 construct: expressed in transfected cells; host or cells: HEK293
T2 sequence (P05106 27-788 E197Q): as the sequence (P05106 27-788) above, with E171Q counted along it
T2 sequence (P06756 31-889 partner limits assumed): as the sequence (P06756 31-889 partner limits assumed) above
T2 sequence (P06756 891-1048 partner limits assumed): as the sequence (P06756 891-1048 partner limits assumed) above
Text: (§2) FIG. 4. Binding of Integrin αvβ3 specific antibodies to human β3 containing rat residues.
(§3) Sequence comparison of residues 164 to 202 of β3 integrins from different species and design of mutations. To further characterize the binding epitope of Vitaxin®, the gene encoding β3 was cloned and sequenced from hamster cDNA. The amino acids in the region previously proposed to contain the LM609 binding epitope are shown above (dashed lines depict conserved residues). To determine which residues in the human sequence were essential for antibody binding, the amino acids shown in color were mutated to the corresponding rat residues. The resulting genes were transfected to HEK293 cells which express endogenous human αv. Resulting cell lines were analyzed by flow cytometry for antibody binding.
(§4) This protocol is used to assess the surface expression of integrins in HEK-293 cells transfected with various Integrin subunits. Primary antibodies bound to the integrins are detected by fluorochrome-conjugated secondary antibodies and analyzed by flow cytometry.
(§5) 1. Wash adherent cells twice with 5 ml of PBS.
(§6) 2. Add 1.5 ml of trypsin solution or cell dissociation solution, incubate at 37_C. foir 2 min.
(§7) 3. Add 3 ml of culture medium or FACs buffer to the plate and loosen cells from the plate by pipetting. Count cells. Resuspend cells in FACs buffer at 5×10^6 per ml.
(§8) 4. Transfer an aliquot of 5×10^5 cells (100 μl) into microfuge tubes containing 10 μg mouse IgG or human IgG. Incubate cells for 20 min at RT to block IgG receptor sites. Note: use mouse IgG for blocking when using human primary mAb; use human IgG for blocking when using mouse primary mAb.
(§9) 5. Add […] of Vitaxin®, or other primary mAb, and incubate for 20 min at RT.
(§10) 6. Wash twice with 500 μl of FACS buffer, spinning cells at 1500 rpm for 5 minutes.
(§11) 7. Add 0.5 mg of goat anti-human IgG Alexa 488, or other secondary antibodies, and incubate for 20 min at RT.
(§12) 8. Wash twice with 500 μl FACS buffer, spinning cells at 1500 rpm for 5 minutes.
(§13) 9. Resuspend in 500 μl buffer for FACS analysis.
(§14) 10. Use unstained cells for background. For negative control, use secondary antibody alone.

[5] = target: T3, human β3 Mutant A + C (E171Q D179T T182S) (Homo sapiens, UniProt P05106, D205T/E197Q/T208S); experiment: as above; assay type: binding; settings: flow cytometry
T3 construct: expressed in transfected cells; host or cells: HEK293
T3 sequence (P05106 27-788 E197Q/D205T/T208S): as the sequence (P05106 27-788) above, with E171Q, D179T, T182S counted along it
T3 sequence (P06756 31-889 partner limits assumed): as the sequence (P06756 31-889 partner limits assumed) above
T3 sequence (P06756 891-1048 partner limits assumed): as the sequence (P06756 891-1048 partner limits assumed) above
Text: as §2, §3, §4, §5, §6, §7, §8, §9, §10, §11, §12, §13, §14

[6] = target: T4, human β3 Mutant ABC (E171Q L173I E174K D179T T182S) (Homo sapiens, UniProt P05106, D205T/E197Q/E200K/L199I/T208S); experiment: as above; assay type: binding; settings: flow cytometry
T4 construct: expressed in transfected cells; host or cells: HEK293
T4 sequence (P05106 27-788 E197Q/L199I/E200K/D205T/T208S): as the sequence (P05106 27-788) above, with E171Q, L173I, E174K, D179T, T182S counted along it
T4 sequence (P06756 31-889 partner limits assumed): as the sequence (P06756 31-889 partner limits assumed) above
T4 sequence (P06756 891-1048 partner limits assumed): as the sequence (P06756 891-1048 partner limits assumed) above
Text: as §2, §3, §4, §5, §6, §7, §8, §9, §10, §11, §12, §13, §14

[7] = target: T5, human β3 Mutant B (L173I E174K) (Homo sapiens, UniProt P05106, E200K/L199I); experiment: as above; assay type: binding; settings: flow cytometry
T5 construct: expressed in transfected cells; host or cells: HEK293
T5 sequence (P05106 27-788 L199I/E200K): as the sequence (P05106 27-788) above, with L173I, E174K counted along it
T5 sequence (P06756 31-889 partner limits assumed): as the sequence (P06756 31-889 partner limits assumed) above
T5 sequence (P06756 891-1048 partner limits assumed): as the sequence (P06756 891-1048 partner limits assumed) above
Text: as §2, §3, §4, §5, §6, §7, §8, §9, §10, §11, §12, §13, §14

[8] = Human HUVEC primary endothelium

B1: Vitaxin®: humanized blocking monoclonal antibody that binds Integrin αVβ3 (MEDI-522, MedImmune); humanized and optimized version of LM609 (antibody, chains of the INN, looked up, V domains shown)
VH: QVQLVESGGGVVQPGRSLRLSCAASGFTFSSYDMSWVRQAPGKGLEWVAKVSSGGGSTYYLDTVQGRFTISRDNSKNTLYLQMNSLRAEDTAVYYCARHLHGSFASWGQGTTVTVSS
VL: EIVLTQSPATLSLSPGERATLSCQASQSISNFLHWYQQRPGQAPRLLIRYRSQSISGIPARFSGSGSGTDFTLTISSLEPEDFAVYYCQQSGSWPLTFGGGTKVEIK
- Kd ([1]; Rabbit RK1 kidney epithelium): 23 nM
- Kd ([1]; Rabbit VX7 carcinoma): 8.9 nM
- affinity for rabbit αvβ3, fold lower than human αvβ3 ([1]; rabbit vs human cell lines): 4-10 fold
- Kd ([2]; Hamster CCL-49 melanoma, read-out: Kp): 6.9 nM
- affinity for hamster αvβ3, fold lower than human αvβ3 ([2]; hamster vs human cell lines): 2-3 fold
- Binding Sites [3, 8]: 8.1 × 10^4
- Kd [3, 8]: 3.3 nM
- Binding Sites ([3]; Human M21 melanoma): 1.3 × 10^5
- Kd ([3]; Human M21 melanoma): 2.2 nM
- effect of Mutation A (Glu to Gln at position 171) on antibody binding [4]: disrupts binding
- effect of Mutations A and C combined on antibody binding [5]: disrupts binding; also recorded: eliminated binding
- effect of changing all three regions (A, B and C) to rat residues on antibody binding [6]: disrupt binding; also recorded: completely eliminate binding
- effect of Mutation B (Leu, Glu to Ile, Lys at positions 173 and 174) on antibody binding [7]: disrupt binding
